± gives the standard deviation of the averaged measurements.
What follows are sequences tested on Saccharomyces cerevisiae (assay: protein stability index of tFT-peptide fusion (C-terminal peptide) (PSI (0-1 scale)); higher = more stable (slower turnover)). Settings: genetic background: das1 deletion; temperature: 30 C.
Experimental: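 MPS profiling in S. cerevisiae of the tFT-X12 degron library: putative degron peptides plus stable controls, 12 aa, fused to the C-terminus of a sfGFP-mCherry timer. Cells are FACS-sorted into 8 mCherry/sfGFP bins and deep-sequenced. PSI runs from 0 (unstable) to 1 (stable). Backgrounds are wild type, das1Δ and doa10Δ at 30 °C, and wild type, das1Δ, cdc34-1 and cdc53-1 at 37 °C; 2-3 technical replicates each.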
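Also: PSI is a weighted mean of sequencing reads over stability bins, variants kept only with over 10 reads, mCherry proximal and sfGFP distal, peptide attached via GGGS linker.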

Going from KNGNVEILIKCT to KRNLLYNIIVWI, the protein stability index falls from 0.485 ± 0.018 to 0.357 ± 0.025.

Going from KTSVLLCVSTSF to LAINVRRELLFF, the protein stability index rises from 0.427 ± 0.018 to 0.643 ± 0.029.

Compared with LARRASCFWVRC, LAVVCIHAVSSF is lower in protein stability index: 0.633 ± 0.026 for the first, 0.352 ± 0.018 for the second.

First: LCAFLKLFILII
Second: LCARVCITFNIV
The protein stability index of the first is lower: 0.181 ± 0.051 for the first, 0.458 ± 0.013 for the second.

Compared with LCWLVHFFLWVS, LESYGLRDSTSG is higher in protein stability index: 0.312 ± 0.024 for the first, 0.638 ± 0.099 for the second.

Compared with LFCVCFYGRIFL, LFFCYRVFLLVF is lower in protein stability index: 0.335 ± 0.028 for the first, 0.199 ± 0.023 for the second.

LFFGFFLIYFLG and LFFVVFFLLFLL are within error of each other in protein stability index: 0.384 ± 0.034 for the first, 0.36 ± 0.026 for the second.

Going from LFFWFMYLRRLI to LFHSFFLYCLMS, the protein stability index rises from 0.403 ± 0.041 to 0.616 ± 0.042.

Compared with LFIFYCFFFLVR, LFLEVCFFRLYF is higher in protein stability index: 0.318 ± 0.043 for the first, 0.447 ± 0.032 for the second.

First: LFLLFLCLSSLF
Second: LFLLSVNLLLGY
The protein stability index of the first is higher: 0.487 ± 0.02 for the first, 0.138 ± 0.035 for the second.

Compared with LFLPFLPTLALL, LFLYDFIALRCS is lower in protein stability index: 0.686 ± 0.032 for the first, 0.405 ± 0.025 for the second.

LFRGVWYYFLVR and LFSSFFVFRLLV are within error of each other in protein stability index: 0.445 ± 0.021 for the first, 0.455 ± 0.028 for the second.

Compared with LFVFVLAGFCCV, LFVPVFSFGFVC is higher in protein stability index: 0.32 ± 0.025 for the first, 0.415 ± 0.027 for the second.

Going from LFWWCMVFISLI to LFYVCPFVCFLC, the protein stability index rises from 0.285 ± 0.041 to 0.516 ± 0.017.

Compared with LGFFPSPVLCVF, LGGVGTLVHCFV is higher in protein stability index: 0.197 ± 0.024 for the first, 0.36 ± 0.022 for the second.

First: LGRYHPWLLFLC
Second: LHSDHLRIILRI
The protein stability index of the first is lower: 0.457 ± 0.035 for the first, 0.567 ± 0.036 for the second.

LIAGTRRIPLFI and LISGVCLRVKVG are within error of each other in protein stability index: 0.515 ± 0.043 for the first, 0.452 ± 0.029 for the second.

LKFSLLLPVQVI and LLGHLFTMLVIY are within error of each other in protein stability index: 0.301 ± 0.03 for the first, 0.286 ± 0.053 for the second.

Compared with LLLLRCLWISHA, LLPLLFFFLCLP is higher in protein stability index: 0.319 ± 0.039 for the first, 0.495 ± 0.035 for the second.

First: LLPSPLLLYSLS
Second: LLRLCGFPLGVG
The protein stability index of the first is lower: 0.434 ± 0.022 for the first, 0.488 ± 0.014 for the second.

LLRLPLLALLFV and LLSAFPYLPVFA are within error of each other in protein stability index: 0.233 ± 0.026 for the first, 0.251 ± 0.02 for the second.

Going from LLVRSFIFPLVY to LLVVGPVRLVVH, the protein stability index falls from 0.294 ± 0.053 to 0.201 ± 0.034.

Compared with LLYPSKFCITAI, LLYYMPELLILT is lower in protein stability index: 0.413 ± 0.032 for the first, 0.208 ± 0.0081 for the second.

Compared with LMLIPRLLVGAH, LPFFSFSPWWFY is higher in protein stability index: 0.184 ± 0.029 for the first, 0.736 ± 0.04 for the second.

Going from LPIFWVWFSVFR to LPLHPHRSRYLV, the protein stability index rises from 0.269 ± 0.035 to 0.674 ± 0.019.

Going from LPPPTPRSVLLN to LPSPPSSPPLRP, the protein stability index falls from 0.672 ± 0.019 to 0.597 ± 0.0064.

First: LPSRWVPLPTPA
Second: LPTLDCPLHRLF
The protein stability index of the first is lower: 0.407 ± 0.037 for the first, 0.641 ± 0.012 for the second.

First: LQCVYFVFFICF
Second: LQVPTLRLFVFF
The protein stability index of the first is lower: 0.266 ± 0.018 for the first, 0.577 ± 0.02 for the second.

First: LRMSLLVFLLFA
Second: LRQKIIYWWLWL
The protein stability index of the first is lower: 0.261 ± 0.033 for the first, 0.472 ± 0.03 for the second.

Going from LRVLSVVRLSVW to LSARVFCFWFFS, the protein stability index rises from 0.407 ± 0.034 to 0.549 ± 0.05.

Going from LSFLCFSTVLHC to LSFLFFRLCSFF, the protein stability index rises from 0.511 ± 0.017 to 0.568 ± 0.034.

First: LSLLCFVASVVA
Second: LSLVIFIFLYCR
The protein stability index of the first is higher: 0.238 ± 0.027 for the first, 0.179 ± 0.0092 for the second.

Compared with LSLWPIFGIIYC, LSPPPLSFPFSA is higher in protein stability index: 0.357 ± 0.024 for the first, 0.623 ± 0.012 for the second.

Compared with LSVVVLVLCVLL, LVGYCGAWACVV is higher in protein stability index: 0.279 ± 0.04 for the first, 0.558 ± 0.023 for the second.

Going from LVLCCGFWFRAV to LVLGVEVCFVLG, the protein stability index falls from 0.464 ± 0.031 to 0.177 ± 0.033.

Going from LVPYLWWLVFAL to LVVFGLVLSLLL, the protein stability index rises from 0.192 ± 0.028 to 0.376 ± 0.022.

Going from LVVWASLVRVEG to LVWDLFRCFSML, the protein stability index rises from 0.252 ± 0.037 to 0.647 ± 0.032.

First: LVWSGLIVVVGG
Second: LWAVGVATDWGG
The protein stability index of the first is lower: 0.2 ± 0.03 for the first, 0.684 ± 0.029 for the second.

Going from LWERRSRQLTMF to LWGLVGVCLVLC, the protein stability index falls from 0.687 ± 0.014 to 0.176 ± 0.021.

Same assay, conditions: genetic background: das1 deletion; temperature: 37 C

Compared with KNGNVEILIKCT, KRNLLYNIIVWI is lower in protein stability index: 0.631 ± 0.0084 for the first, 0.524 ± 0.021 for the second.

Compared with KTSVLLCVSTSF, LAINVRRELLFF is higher in protein stability index: 0.628 ± 0.015 for the first, 0.7665 ± 0.007 for the second.

Going from LARRASCFWVRC to LAVVCIHAVSSF, the protein stability index falls from 0.71798 ± 0.00063 to 0.533 ± 0.0038.

Compared with LCAFLKLFILII, LCARVCITFNIV is higher in protein stability index: 0.325 ± 0.017 for the first, 0.4975 ± 0.0038 for the second.

First: LCWLVHFFLWVS
Second: LESYGLRDSTSG
The protein stability index of the first is lower: 0.442 ± 0.023 for the first, 0.741 ± 0.042 for the second.

First: LFCVCFYGRIFL
Second: LFFCYRVFLLVF
The protein stability index of the first is higher: 0.526 ± 0.018 for the first, 0.243 ± 0.006 for the second.

LFFGFFLIYFLG and LFFVVFFLLFLL are within error of each other in protein stability index: 0.495 ± 0.0074 for the first, 0.477 ± 0.029 for the second.

LFFWFMYLRRLI and LFHSFFLYCLMS are within error of each other in protein stability index: 0.524 ± 0.11 for the first, 0.662 ± 0.04 for the second.

First: LFIFYCFFFLVR
Second: LFLEVCFFRLYF
The protein stability index of the first is lower: 0.395 ± 0.0053 for the first, 0.54 ± 0.011 for the second.

Compared with LFLLFLCLSSLF, LFLLSVNLLLGY is lower in protein stability index: 0.591 ± 0.032 for the first, 0.191 ± 0.035 for the second.

Compared with LFLPFLPTLALL, LFLYDFIALRCS is lower in protein stability index: 0.7901 ± 0.0056 for the first, 0.566 ± 0.032 for the second.

Going from LFRGVWYYFLVR to LFSSFFVFRLLV, the protein stability index falls from 0.61 ± 0.0087 to 0.581 ± 0.0041.

Compared with LFVFVLAGFCCV, LFVPVFSFGFVC is higher in protein stability index: 0.485 ± 0.011 for the first, 0.589 ± 0.009 for the second.

Going from LFWWCMVFISLI to LFYVCPFVCFLC, the protein stability index rises from 0.413 ± 0.0096 to 0.61052 ± 9.9e-05.

Going from LGFFPSPVLCVF to LGGVGTLVHCFV, the protein stability index rises from 0.209 ± 0.0036 to 0.607 ± 0.0081.

Going from LGRYHPWLLFLC to LHSDHLRIILRI, the protein stability index rises from 0.614 ± 0.0077 to 0.659 ± 0.036.

Compared with LIAGTRRIPLFI, LISGVCLRVKVG is lower in protein stability index: 0.665 ± 0.0049 for the first, 0.6276 ± 0.00027 for the second.

Compared with LKFSLLLPVQVI, LLGHLFTMLVIY is lower in protein stability index: 0.403 ± 0.0053 for the first, 0.366 ± 0.0077 for the second.

Compared with LLLLRCLWISHA, LLPLLFFFLCLP is higher in protein stability index: 0.5121 ± 0.0012 for the first, 0.5602 ± 0.0049 for the second.

Going from LLPSPLLLYSLS to LLRLCGFPLGVG, the protein stability index falls from 0.6022 ± 0.0024 to 0.55 ± 0.0049.

Compared with LLRLPLLALLFV, LLSAFPYLPVFA is higher in protein stability index: 0.356 ± 0.0077 for the first, 0.3941 ± 0.0035 for the second.

Compared with LLVRSFIFPLVY, LLVVGPVRLVVH is lower in protein stability index: 0.482 ± 0.018 for the first, 0.346 ± 0.017 for the second.

Going from LLYPSKFCITAI to LLYYMPELLILT, the protein stability index falls from 0.575 ± 0.016 to 0.273 ± 0.0049.

Compared with LMLIPRLLVGAH, LPFFSFSPWWFY is higher in protein stability index: 0.2958 ± 0.0022 for the first, 0.817 ± 0.029 for the second.

Compared with LPIFWVWFSVFR, LPLHPHRSRYLV is higher in protein stability index: 0.445 ± 0.027 for the first, 0.702 ± 0.031 for the second.

LPPPTPRSVLLN and LPSPPSSPPLRP are the same in protein stability index: 0.732 ± 0.015 for the first, 0.732 ± 0.045 for the second.

Compared with LPSRWVPLPTPA, LPTLDCPLHRLF is higher in protein stability index: 0.59 ± 0.004 for the first, 0.7615 ± 0.0076 for the second.

Going from LQCVYFVFFICF to LQVPTLRLFVFF, the protein stability index rises from 0.412 ± 0.0067 to 0.698 ± 0.021.

Going from LRMSLLVFLLFA to LRQKIIYWWLWL, the protein stability index rises from 0.4419 ± 0.0016 to 0.613 ± 0.008.

Going from LRVLSVVRLSVW to LSARVFCFWFFS, the protein stability index rises from 0.545 ± 0.011 to 0.677 ± 0.028.

First: LSFLCFSTVLHC
Second: LSFLFFRLCSFF
The protein stability index of the first is lower: 0.58 ± 0.019 for the first, 0.668 ± 0.021 for the second.

Compared with LSLLCFVASVVA, LSLVIFIFLYCR is lower in protein stability index: 0.292 ± 0.015 for the first, 0.234 ± 0.0042 for the second.

Going from LSLWPIFGIIYC to LSPPPLSFPFSA, the protein stability index rises from 0.516 ± 0.013 to 0.737 ± 0.011.

Compared with LSVVVLVLCVLL, LVGYCGAWACVV is higher in protein stability index: 0.42 ± 0.027 for the first, 0.674 ± 0.018 for the second.

First: LVLCCGFWFRAV
Second: LVLGVEVCFVLG
The protein stability index of the first is higher: 0.612 ± 0.0063 for the first, 0.296 ± 0.0065 for the second.

Going from LVPYLWWLVFAL to LVVFGLVLSLLL, the protein stability index rises from 0.319 ± 0.046 to 0.5066 ± 0.0043.

Going from LVVWASLVRVEG to LVWDLFRCFSML, the protein stability index rises from 0.4191 ± 0.0033 to 0.759 ± 0.038.

First: LVWSGLIVVVGG
Second: LWAVGVATDWGG
The protein stability index of the first is lower: 0.318 ± 0.013 for the first, 0.768 ± 0.015 for the second.

Compared with LWERRSRQLTMF, LWGLVGVCLVLC is lower in protein stability index: 0.7401 ± 0.0057 for the first, 0.229 ± 0.0061 for the second.

Source: the supplement of paper PMC10724198
